Like-named read-outs stand apart in the source and are kept apart here. *1 amine or outer side, *2 acyl side, *3 side chain or, on linkers, in order; H or OH if unused. Where a SMILES comes first, the peptide text is derived from it. Side-chain parts run from the residue outwards. [ ]: non-standard residue; d: D form. The star is where a group is joined. HSG = histamine succinyl glycyl group, O=C(CCC(=O)NCC(=O)*)NCCc1c[nH]cn1; DOTA = O=C(O)CN1CCN(CC(=O)O)CCN(CC(=O)*)CCN(CC(=O)O)CC1; NH(2-(imidazol-4-yl)ethyl) = c1ncc(CCN*)[nH]1; Suc = O=C(CCC(=O)[*:2])[*:1]
How the values were obtained:
[1] = Stability of ^18F-labeled IMP449 in human serum at 37° C.
Method: Three microliters of a 2 mM solution of Al in a pH 4 acetate buffer was mixed with 15 μL, 1.3 mCi of ^18F. […] […] […] Another aliquot was removed after 1 hr and analyzed by HPLC.

[2] = Radioprotection of 800CW with radical scavengers; assay type: physicochemical; details: for radioprotection of 800CW: 20 MBq of ^68Ga, 0.5, 3 and 6 h exposure
Method: The radioprotective effect of three common hydroxyl radical scavengers, ethanol, gentisic acid (GA) and ascorbic acid (AA) was tested. […]

[3] = IRDye800CW irradiations (radiobleaching); assay type: physicochemical
Method: To assess the radiosensitivity of 800CW, 5 μg/mL aqueous solution of the dye in 0.1 M NaAc buffer pH 4.5 was prepared and mixed with increasing activities of ^68Ga, ^111In, and ^213Bi (1-20 MBq) for a 310 μL final volume. Radioactive solutions were incubated in 1.5 mL Eppendorf tubes at 4° C. in the dark, and 100 μL aliquots taken at 0.5, 6, and 24 h time points for fluorescence measurement. The effect of volume on 800CW's radiosensitivity was determined by incubating 150, 300, 550,800, or 1050 μL of 5 μg/mL buffered dye solution with 20 MBq of ^68Ga. All fluorescence readings were normalized to non-irradiated controls.

[4] = Effect of heating on fluorescence of 800CW; assay type: physicochemical; details: NaAc 0.1 M pH 4.5, 1 h at 95° C.
Method: To investigate the effect of heating on the fluorescence of 800CW, 5 μg/mL solutions of the dye in NaAc (0.1 M, pH 4.5) were placed in a heating block at 95° C. for 5, 15, 30, or 60 min. Following, samples were cooled down to room temperature, measured in the plate reader, and the fluorescence of each sample was normalized to a non-heated control.

[5] = test system: nude mice bearing LS174T human colonic xenografts; test: Biodistribution of ^18F-labeled agents with or without TF2 pretargeting; details: not pretargeted
Source text: Six-week-old NCr nu-m female nude mice were implanted s.c. with the human colonic cancer cell line, LS174T (ATCC, Manassas, Va.).
Tissues were weighed and counted together with a standard dilution prepared from each of the respective products. Due to the short physical half-life of ^18F, standards were interjected between each group of tissues from each animal. Uptake in the tissues is expressed as the counts per gram divided by the total injected activity to derive the percent-injected dose per gram (% ID/g).

[6] = test system: nude BALB/c mice with s.c. LS174T tumors; test: PET/CT images, region of interest ratios; assay type: in vivo
Method: (§1) PET images were acquired with an Inveon animal PET/CT scanner (Siemens Preclinical Solutions, Knoxville, Tenn.). PET emission scans were acquired for 15 minutes, preceded by CT scans for anatomical reference (spatial resolution 113 μm, 80 kV, 500 μA, exposure time 300 msec).
(§2) Uptake in the tumor was evaluated quantitatively by drawing regions of interest (ROI), using a 50% threshold of maximum intensity. A region in the abdomen was used as background region.

[7] = PET/CT images, region of interest ratios; assay type: in vivo, mice; details: male, BALB/c nude, mouse, iv, total radioactivity, mice with LS174T tumor and inflamed muscle, ^68Ga(IMP288) after TF2
Method: as §1, §2

[8] = target: somatostatin receptors on AR42J cells (rat); test: apparent IC50; competition with ^111In(DTPA-octreotide) on AR42J cells, 3 h at RT
[9] = Stability of Al^18F(IMP467) in human serum or PBS; assay type: in vitro ADME
Method: An aliquot of the HLB purified peptide (˜30 μL) was diluted with 200 μL human serum (previously frozen) and placed in the 37° C. HPLC sample chamber. Aliquots were removed at various time points and analyzed by HPLC.
Optimized conditions for ^18F-labeling of IMP467 were identified. These consisted of eluting ^18F^− with commercial sterile saline (pH 5-7), mixing with 20 nmol of AlCl3 and 40 nmol IMP467 in pH 4 acetate buffer in a total volume of 100 μL, heating to 102° C. for 15 min, and performing SPE separation. High-yield (85%) and high specific activity (115 GBq/μmol) were obtained with IMP467 in a single step, 30-min procedure after a simple solid-phase extraction (SPE) separation without the need for HPLC purification. Al^18F(IMP467) was stable in PBS or human serum, with 2% loss of ^18F after incubation in either medium for 6 h at 37° C.

[10] = test system: nude mice bearing Capan-1 human pancreatic cancer xenografts; details: mouse, in vivo
Method: (§3) Nude mice were inoculated subcutaneously with CaPan-1 human pancreatic adenocarcinoma (ATCC Accession No. HTB-79, Manassas, Va.). When tumors were visible, the animals were injected intravenously with 100 μL of the radiolabeled Fab′. […] The animals were necropsied at 3 h post injection, tissues and tumors removed, weighed, and counted by gamma scintillation, together with standards prepared from the injected products. The data are expressed as percent injected dose per gram.

[11] = test system: nude mice bearing Capan-1 human pancreatic cancer xenografts; test: Biodistribution of radiolabeled Fab′; details: 3 h after injection
Method: as §3

[12] = target: T1, CEA (Homo sapiens, UniProt P06731); test: Immunoreactivity with excess CEA by SE-HPLC; assay type: binding; details: 0.74-GBq run
T1 sequence (P06731 35-676): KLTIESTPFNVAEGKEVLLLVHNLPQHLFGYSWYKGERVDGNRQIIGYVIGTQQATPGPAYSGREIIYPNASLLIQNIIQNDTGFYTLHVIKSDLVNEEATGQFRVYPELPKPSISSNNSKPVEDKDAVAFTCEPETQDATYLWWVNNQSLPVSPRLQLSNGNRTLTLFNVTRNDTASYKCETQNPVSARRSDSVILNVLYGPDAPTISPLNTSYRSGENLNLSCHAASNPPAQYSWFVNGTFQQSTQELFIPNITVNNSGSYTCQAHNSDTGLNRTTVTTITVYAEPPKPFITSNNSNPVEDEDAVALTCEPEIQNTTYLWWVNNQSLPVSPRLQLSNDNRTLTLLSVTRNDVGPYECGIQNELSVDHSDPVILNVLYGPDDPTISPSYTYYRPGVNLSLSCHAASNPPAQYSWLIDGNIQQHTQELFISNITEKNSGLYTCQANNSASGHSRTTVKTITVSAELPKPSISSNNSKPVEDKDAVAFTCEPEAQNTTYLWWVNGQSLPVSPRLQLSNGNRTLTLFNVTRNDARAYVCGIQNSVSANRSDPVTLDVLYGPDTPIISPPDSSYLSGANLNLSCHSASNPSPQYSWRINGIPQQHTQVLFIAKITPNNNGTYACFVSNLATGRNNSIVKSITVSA
Method: Immunoreactivity of the purified product was analyzed by adding an excess of CEA and separating on SE-HPLC, comparing to a profile of the product alone. The product was also analyzed by RP-HPLC to assess percent-unbound Al^18F(NOTA-MPAEM).

[13] = Stability of ^18F-labeled IMP272 in PBS (reverse phase HPLC); assay type: physicochemical; details: incubated at room temperature with PBS for ~1 hr
Method: ^18F-Labeling of IMP272—A 3 μL aliquot of the aluminum stock solution was placed in a REACTI-VIAL™ and mixed with 50 μL ^18F (as received) and 3 μL of the IMP272 solution. […] The remainder of the peptide solution was incubated at room temperature with 150 μL PBS for ˜1 hr and then examined by reverse phase HPLC.

Chain of somatostatin receptors on AR42J cells (rat) (P30680 whole entry): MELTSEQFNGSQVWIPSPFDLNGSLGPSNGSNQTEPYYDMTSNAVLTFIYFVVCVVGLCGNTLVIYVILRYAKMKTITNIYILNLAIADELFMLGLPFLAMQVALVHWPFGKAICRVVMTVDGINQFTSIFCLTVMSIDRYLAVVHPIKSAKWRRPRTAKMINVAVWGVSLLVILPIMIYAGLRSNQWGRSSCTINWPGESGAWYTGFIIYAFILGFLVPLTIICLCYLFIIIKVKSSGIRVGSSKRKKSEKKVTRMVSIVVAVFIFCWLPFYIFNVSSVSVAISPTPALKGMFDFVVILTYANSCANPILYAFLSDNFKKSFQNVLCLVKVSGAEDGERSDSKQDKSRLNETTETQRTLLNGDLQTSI

With C[C@@H](NC(=S)Nc1ccc(CC2CN(CC(=O)O)CCN(CC(=O)O)CCN2CC(=O)O)cc1)C(=O)N[C@H](CCCCNC(=O)CNC(=O)CCC(=O)NCCc1c[nH]cn1)C(=O)N[C@H](Cc1ccc(O)cc1)C(=O)N[C@H](CCCCNC(=O)CNC(=O)CCC(=O)NCCc1c[nH]cn1)C(N)=O (stereo partly drawn) [IMP449, NOTA-benzyl-ITC-D-Ala-D-Lys(HSG)-D-Tyr-D-Lys(HSG)-NH2] the “stability in human serum” value [1] was 76% and the “stability in human serum” value ([1]; purified, 37° C., at least one hour) was 91%.
With CCO [EtOH, ethanol] the “radioprotection of 800CW” value [2] was “both concentration and exposure time dependent”.
With O=C1O[C@H]([C@@H](O)CO)C(O)=C1O [AA, ascorbic acid] the “radioprotection against ^111In and ^213Bi induced radiobleaching of 800CW” value ([2]; 0.1% (w/v) AA) was “effective radioprotection” and the “concentrations that completely preserve 800CW fluorescence” value ([2]; 20 MBq of ^68Ga, longer radiation exposure) was 0.001-10 % (w/v).
For CC1(C)C(/C=C/C2=C(Oc3ccc(S(=O)(=O)O)cc3)C(=C/C=C3/N(CCCCS(=O)(=O)O)c4ccc(S(=O)(=O)[O-])cc4C3(C)C)/CCC2)=[N+](CCCCCC(=O)O)c2ccc(S(=O)(=O)O)cc21 [800CW], the “change of 800CW fluorescence on exposure to ^68Ga” value ([3]; 0.1 M NaAc pH 4.5, 30 min exposure, increasing activities) was “pronounced dose-dependent decrease”, the “extent of radiobleaching by the three radionuclides, trend” value ([3]; similar activity level and exposure times) was “^68Ga>^111In>^213Bi” and the “fluorescent intensity, % of the initial values” [4] was 60%.
[18FH] [^18F, reference compound] showed a tumor/blood ratio [5] of 6.7±2.7.
In the case of NC(=O)[C@@H](CCCCNC(=O)CNC(=O)CCC(=O)NCCc1c[nH]cn1)NC(=O)[C@@H](CCC(=O)O)NC(=O)[C@@H](CCCCNC(=O)CNC(=O)CCC(=O)NCCc1c[nH]cn1)NC(=O)[C@@H](Cc1ccc(O)cc1)NC(=O)CN1CCN(CC(=O)O)CCN(CC(=O)O)CCN(CC(=O)O)CC1 [^68Ga(IMP288), metal not drawn] ({DOTA}-[dY][dK]([Gly-Suc-NH(2-(imidazol-4-yl)ethyl)])[dE][dK]([Gly-Suc-NH(2-(imidazol-4-yl)ethyl)])-NH2), the “tumor-to-background ratio in PET image” value ([6]; TF2 and ^68Ga(IMP288), 1 h, ROI 50% threshold, abdomen as background) is reported as 38.2, the “tumor-to-inflamed tissue ratio in PET/CT image” value ([6]; mice with LS174T tumor and inflamed muscle, ^68Ga(IMP288) after TF2) is reported as 5.4 and the tissue to tissue ratio at 1 h ([7]; read-out: inflamed muscle-to-background ratio in PET/CT image) is reported as 8.9. The tissue to tissue ratio at 1 h ([7]; read-out: tumor-to-background ratio in PET/CT image) was 48.
Compound Al^19F(IMP466) (peptide) has an IC50 [8] of 3.6 nM.
For O=C(O)c1cc(O)ccc1O [GA, gentisic acid], the “radioprotection of 800CW” value [2] was “both concentration and exposure time dependent”.
Compound ^115In(DTPA-octreotide) (peptide) has an IC50 [8] of 6.3 nM.
With ^69Ga(IMP466) (peptide) the IC50 [8] was 13 nM.
For “C-NETA-succinyl-D-Lys(HSG)-D-Tyr-D-Lys(HSG)-NH2 ({C‑NETA-Suc}-[dK](HSG)-[dY]-[dK](HSG)-NH2) [IMP467]”, the “breakdown of ^18F-labeled peptide in serum” value ([9]; human serum, 37° C., five hour incubation) was “no detectable breakdown”.
For “Al^18F(NOTA-MPAES)-hMN-14 Fab′: Al^18F(NOTA-MPAEM) conjugated to Fab′ of humanized MN-14 anti-CEACAM5 IgG (labetuzumab)”, the “T/NT Liver” value [10] was 0.2 ± 0.04, the “T/NT Lung” value [10] was 0.8 ± 0.5 and the “T/NT Muscle” value [10] was 6.7 ± 1.3. The “T/NT Scapula” value [10] was 1.8 ± 0.4, the “T/NT Sm. Int.” value [10] was 1.3 ± 0.1 and the “T/NT Spleen” value [10] was 0.3 ± 0.04. For the same compound, the “T/NT Stomach” value [10] was 4.7 ± 1.2, the “% ID/g Blood” value [11] was 0.5 ± 0.1 % ID/g and the “% ID/g Capan-1 tumor” value [11] was 2.8 ± 0.3 % ID/g. The “% ID/g Kidney” value [11] was 216 ± 30.9 % ID/g, the “% ID/g Lg. Int.” value [11] was 1.1 ± 0.4 % ID/g and the “% ID/g Liver” value [11] was 17.5 ± 3.8 % ID/g. For the same compound, the “% ID/g Lung” value [11] was 4.2 ± 1.6 % ID/g, the “% ID/g Muscle” value [11] was 0.4 ± 0.1 % ID/g and the “% ID/g Scapula” value [11] was 1.6 ± 0.4 % ID/g. For the same compound, the “% ID/g Sm. Int.” value [11] was 2.2 ± 0.2 % ID/g, the “% ID/g Spleen” value [11] was 11.3 ± 1.6 % ID/g and the “% ID/g Stomach” value [11] was 0.6 ± 0.1 % ID/g. For the same compound, the “T/NT Blood (tumor/blood ratio)” value [11] was 5.9 ± 1.3, the “T/NT Kidney” value [11] was 0.0 ± 0.0 and the “T/NT Lg. Int.” value [11] was 2.8 ± 0.7. The “% ID/g Capan-1 tumor” value ([11]; listed as [Al^18F]-Fab′) was 2.8±0.3 % ID/g, the “T/NT Blood (tumor/blood ratio)” value ([11]; listed as [Al^18F]-Fab′) was 5.9±1.3 and the “shift of activity on SE-HPLC when excess CEA was added” value [12] was “all of the activity shifted”.
In the case of “DTPA-Gln-Ala-Lys(HSG)-D-Tyr-Lys(HSG)-NH2 [IMP272]”, the “^18F still attached to the peptide” value [13] is reported as 42% and the “^18F unbound” value [13] is reported as 58%.
In the case of NC(=O)[C@@H](CCCCNC(=O)CNC(=O)CCC(=O)NCCc1c[nH]cn1)NC(=O)[C@@H](Cc1ccc(O)cc1)NC(=O)[C@@H](CCCCNC(=O)CNC(=O)CCC(=O)NCCc1c[nH]cn1)NC(=O)CCC(=O)Nc1ccc(CC(CN2CCN(CC(=O)O)CCN(CC(=O)O)CC2)N(CC(=O)O)CC(=O)O)cc1 (stereo partly drawn) [Al^18F(IMP467)], the “loss of ^18F” value ([9]; incubation in PBS or human serum for 6 h at 37° C.) is reported as 2%.
